The values that follow come from paper PMC3407194, “Viral Reverse Transcriptases Show Selective High Affinity Binding to DNA-DNA Primer-Templates that Resemble the Polypurine Tract”.

For one data set, the target named is MuLV RT (Moloney murine leukemia virus, UniProt P03355 660-1330). The data set can be described thus: primer extension with trap; 6 mM Mg2+; Primer extension: 50 mM Tris-HCl pH 8.0, 80 mM KCl, 6 mM MgCl2, 1 mM DTT, 0.1 mg/ml BSA, room temperature, 1 nM duplex; filter binding: Tris-HCl pH 8.0, 80 mM K.
For data set [1], the target named is T1, HIV RT (HIV, UniProt P04585;P04585 588-1147;588-1027). The data set is described as follows: filter binding; no Mg2+; Primer extension: 50 mM Tris-HCl pH 8.0, 80 mM KCl, 6 mM MgCl2, 1 mM DTT, 0.1 mg/ml BSA, room temperature, 1 nM duplex; filter binding: Tris-HCl pH 8.0, 80 mM KCl, 1 mM DTT, without Mg2+ (wt) or 6 mM Mg2+ (E478Q), room temperature, 5 nM hybrid (Table 1 units nM inferred). The settings on record: protein: commercial, copies: 1;1, label: 5'-32P primer.

For data set [2], the target named is T1, HIV RT. The data set can be described thus: primer extension with trap; 6 mM Mg2+; Primer extension: 50 mM Tris-HCl pH 8.0, 80 mM KCl, 6 mM MgCl2, 1 mM DTT, 0.1 mg/ml BSA, room temperature, 1 nM duplex; filter binding: Tris-HCl pH 8.0, 80 mM KCl, 1 mM DTT, without Mg2+ (wt) or 6 mM Mg2+ (E478Q), room temperature, 5 nM hybrid (Table 1 units nM inferred). The settings on record: protein: commercial; copies: 1;1; label: 5'-32P primer; 41 nt primer on 45 nt template, 5' overhang 4 nt (template).

For another data set, the target named is T2, Ty3 RT (Ty3 retrotransposon, UniProt Q99315 536-1011).
T2 sequence: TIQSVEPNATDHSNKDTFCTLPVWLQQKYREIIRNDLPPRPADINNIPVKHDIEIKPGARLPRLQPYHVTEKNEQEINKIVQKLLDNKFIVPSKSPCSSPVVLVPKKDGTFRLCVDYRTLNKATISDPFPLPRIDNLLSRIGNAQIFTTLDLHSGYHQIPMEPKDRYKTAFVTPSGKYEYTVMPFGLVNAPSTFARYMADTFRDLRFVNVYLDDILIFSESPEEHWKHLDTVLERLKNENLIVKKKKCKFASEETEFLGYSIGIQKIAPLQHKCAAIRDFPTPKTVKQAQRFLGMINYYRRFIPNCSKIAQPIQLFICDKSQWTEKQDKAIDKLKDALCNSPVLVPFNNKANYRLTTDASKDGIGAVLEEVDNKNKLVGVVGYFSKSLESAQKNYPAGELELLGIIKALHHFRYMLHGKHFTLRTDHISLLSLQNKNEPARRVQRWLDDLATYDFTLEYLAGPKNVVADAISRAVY
Described as above. The settings on record: protein: recombinant; label: 5'-32P primer; 41 nt primer on 45 nt template, 5' overhang 4 nt (template).

In another data set the target is T3, AMV RT (avian myeloblastosis virus, UniProt Q83133;Q83133 6-577;6-864).
T3 sequence 1: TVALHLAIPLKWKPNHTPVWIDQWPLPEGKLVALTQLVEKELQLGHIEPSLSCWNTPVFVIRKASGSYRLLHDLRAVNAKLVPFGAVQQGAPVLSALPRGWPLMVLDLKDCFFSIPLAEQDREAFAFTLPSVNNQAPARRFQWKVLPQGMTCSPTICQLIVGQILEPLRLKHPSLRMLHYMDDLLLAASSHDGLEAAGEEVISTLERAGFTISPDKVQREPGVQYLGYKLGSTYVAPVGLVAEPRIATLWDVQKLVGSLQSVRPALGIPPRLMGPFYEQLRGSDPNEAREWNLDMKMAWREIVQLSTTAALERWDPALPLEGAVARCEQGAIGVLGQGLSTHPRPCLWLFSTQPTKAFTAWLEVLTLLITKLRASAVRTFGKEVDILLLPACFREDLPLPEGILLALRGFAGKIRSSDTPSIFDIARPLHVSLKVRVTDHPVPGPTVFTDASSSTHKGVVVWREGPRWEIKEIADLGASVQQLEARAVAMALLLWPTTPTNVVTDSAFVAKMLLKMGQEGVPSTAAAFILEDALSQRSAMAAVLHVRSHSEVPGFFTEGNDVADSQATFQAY
T3 sequence 2: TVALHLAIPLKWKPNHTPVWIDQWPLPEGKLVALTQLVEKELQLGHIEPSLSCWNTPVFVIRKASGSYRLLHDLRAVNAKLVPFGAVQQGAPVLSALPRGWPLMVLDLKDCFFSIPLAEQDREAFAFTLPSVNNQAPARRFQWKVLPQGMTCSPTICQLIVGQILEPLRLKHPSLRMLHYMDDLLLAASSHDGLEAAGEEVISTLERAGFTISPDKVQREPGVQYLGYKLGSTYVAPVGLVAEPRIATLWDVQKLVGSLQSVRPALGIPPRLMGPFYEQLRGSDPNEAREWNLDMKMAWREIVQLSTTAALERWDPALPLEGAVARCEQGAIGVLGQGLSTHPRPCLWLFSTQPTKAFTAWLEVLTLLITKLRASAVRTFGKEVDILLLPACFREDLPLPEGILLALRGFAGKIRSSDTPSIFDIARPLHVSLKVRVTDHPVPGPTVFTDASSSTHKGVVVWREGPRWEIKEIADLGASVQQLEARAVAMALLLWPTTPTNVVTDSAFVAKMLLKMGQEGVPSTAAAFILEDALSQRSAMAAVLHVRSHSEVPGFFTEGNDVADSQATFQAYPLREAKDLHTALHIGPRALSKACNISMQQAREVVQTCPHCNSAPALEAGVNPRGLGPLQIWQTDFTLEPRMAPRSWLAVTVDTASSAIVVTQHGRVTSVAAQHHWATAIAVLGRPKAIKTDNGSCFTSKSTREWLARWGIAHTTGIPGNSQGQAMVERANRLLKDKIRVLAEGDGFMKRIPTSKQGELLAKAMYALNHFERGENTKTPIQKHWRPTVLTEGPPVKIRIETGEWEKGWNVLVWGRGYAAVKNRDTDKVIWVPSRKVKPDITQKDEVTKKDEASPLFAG
Described as above. The settings on record: protein: commercial; copies: 1;1; label: 5'-32P primer; 41 nt primer on 45 nt template, 5' overhang 4 nt (template).

B1: MuLV R14-1 (dsDNA)
DNA 1: GCCTGCAGGTCGACTCTAGAATAAGGAAGATCTGCGGGGGG
DNA 2: CTTTCCCCCCGCAGATCTTCCTTATTCTAGAGTCGACCTGCAGGC
In the data set with MuLV RT, B1 registered an equilibrium dissociation constant (Kd) of 8.1 nM.

B2: Ty3 RNA PPT (DNA:RNA)
?: GAGCGCGCGGCC
DNA: CAGCGGCCGCGCGCTCAGG
modifications: strand 1 RNA, strand 2 DNA
With B2, binding in the data set with HIV RT [1] (template 5' overhang 4 nt, 3' overhang 3 nt) was characterised by a dissociation constant (Kd) of 2380 ± 840 nM.

B3: TY3 DNA PPT (dsDNA)
DNA 1: GCCTGCAGGTCGACTCTAGAGACAACCCTGAGAGAGAGGAA
DNA 2: CATCTTCCTCTCTCTCAGGGTTGTCTCTAGAGTCGACCTGCAGGC
Regarding B3, the equilibrium dissociation constant (Kd) with MuLV RT stood at 46 nM; with HIV RT [2], 57 ± 10 nM; with Ty3 RT, 84 ± 26 nM; with AMV RT, 12 ± 2 nM.

B4: Control-2 (DNA:RNA)
RNA: AAUUCGAGCUCGGUA
DNA: CAGTTACCGAGCTCGAATT
modifications: strand 1 RNA, strand 2 DNA
For B4, the Kd with HIV RT [1] (5' overhang 4 nt (template)) was 2610 ± 710 nM.

B5: AMV DNA PPT (dsDNA)
DNA 1: GCCTGCAGGTCGACTCTAGAGCTTTTGCATAGGGAGGGGGA
DNA 2: CATTTCCCCCTCCCTATGCAAAAGCTCTAGAGTCGACCTGCAGGC
Regarding B5, the Kd with MuLV RT is 17 nM; in the data set with HIV RT [2], 8.2 ± 2 nM; in the data set with Ty3 RT, 58 ± 4 nM; in the data set with AMV RT, 1 ± 0.1 nM.

B6: MuLV R14-2 (dsDNA)
DNA 1: GCCTGCAGGTCGACTCTAGACACCAGGACATGATGGCAGGA
DNA 2: ATCTTCCTGCCATCATGTCCTGGTGTCTAGAGTCGACCTGCAGGC
The molecule B6 yielded a Kd in the data set with MuLV RT of 77 nM.

B7: Ty3+3 RNA PPT (DNA:RNA)
RNA: CCUGAGCGCGCGGCC
DNA: CAGCGGCCGCGCGCTCAGG
modifications: strand 1 RNA, strand 2 DNA
As for B7, the Kd in the data set with HIV RT [1] (5' overhang 4 nt (template), printed U opposite A) was 900 ± 205 nM.

B8: AMV R12-2 (dsDNA)
DNA 1: GCCTGCAGGTCGACTCTAGATCACAAAGACCGGCGGGGTAA
DNA 2: ATCTTTACCCCGCCGGTCTTTGTGATCTAGAGTCGACCTGCAGGC
B8 gave a Kd in the data set with AMV RT of 3.5 ± 0.1 nM.

B9: Control-1 (DNA:RNA)
?: AAAAGAAAAGCGCGC
DNA: CAGTGCGCGCTTTTCTTTT
modifications: strand 1 RNA, strand 2 DNA
B9: the Kd with HIV RT [1] (5' overhang 4 nt (template)) is 1760 ± 290 nM.

B10: HIV DNA PPT (41/45) (dsDNA)
DNA 1: GCCTGCAGGTCGACTCTAGACTTTTTAAAAGAAAAGGGGGG
DNA 2: CAGTCCCCCCTTTTCTTTTAAAAAGTCTAGAGTCGACCTGCAGGC
With B10, the Kd with MuLV RT is 7.5 nM; with HIV RT [2], 3.2 ± 0.2 nM; with Ty3 RT, 53 ± 12 nM; in the data set with AMV RT, 2.1 ± 0.4 nM.

B11: MuLV DNA PPT (dsDNA)
DNA 1: GCCTGCAGGTCGACTCTAGATAGTCTCCAGAAAAAGGGGGG
DNA 2: CATTCCCCCCTTTTTCTGGAGACTATCTAGAGTCGACCTGCAGGC
Consider B11, for which the Kd in the data set with MuLV RT was 12 nM; with HIV RT [2], 3.5 ± 0.5 nM; with Ty3 RT, 45 ± 4 nM; with AMV RT it was 2.6 ± 0.2 nM.

B12: MuLV R14-3 (dsDNA)
DNA 1: GCCTGCAGGTCGACTCTAGAGAGATGTAGCGCATGAAGGTA
DNA 2: CTTCTACCTTCATGCGCTACATCTCTCTAGAGTCGACCTGCAGGC
As for B12, the Kd with MuLV RT was 53 nM.

B13: AMV R12-3 (dsDNA)
DNA 1: GCCTGCAGGTCGACTCTAGACGGGCAGTGTAATGAAGGCCA
DNA 2: CTTCTGGCCTTCATTACACTGCCCGTCTAGAGTCGACCTGCAGGC
On to B13, for which the Kd with AMV RT stood at 6.8 ± 0.1 nM.

As usually defined, the Kd is the free concentration of one partner at which half of the binding sites on the other are occupied at equilibrium, for simple one-to-one binding.
